{
  "source": "paper PMC7291239",
  "key": {"[1]": {"target": "AnxA2 10x (AnxA2 A66E 6x with R36S, V53A, T54A, K328A in addition, alkylated at Cys-8) (human) (UniProt P07355)", "test": "cross-linking; Ca2+/membrane sample: AnxA2 (60 ug) bound to LUVs (100 nm, POPC:DOPC:Chol:POPS 40:20:20:20, 100 ug) with 1 mM CaCl2 in HBS pH 7.4, 0.3 mM Biotin3xNHSX-Linker added after 30 min for 30 min; 10% SDS-PAGE, Coomassie; oligomer bands above the dimer position quantified against the monomer band"}, "[2]": {"target": "AnxA2 6x (AnxA2 A66E with K81A, E189K, R196S, K206A, K212S, E219K, alkylated at Cys-8) (human) (UniProt P07355)", "test": "cross-linking; Ca2+/membrane sample: AnxA2 (60 ug) bound to LUVs (100 nm, POPC:DOPC:Chol:POPS 40:20:20:20, 100 ug) with 1 mM CaCl2 in HBS pH 7.4, 0.3 mM Biotin3xNHSX-Linker added after 30 min for 30 min; 10% SDS-PAGE, Coomassie; oligomer bands above the dimer position quantified against the monomer band"}},
  "data": [
    {"substance": "AnxA2 10x (AnxA2 A66E 6x with R36S, V53A, T54A, K328A in addition, alkylated at Cys-8) (from UniProt P07355 21-339) (natural protein)", "values": [
      {"measurement": "crosslinked oligomers, percent of wild type (% of wild type)", "setting": "[1]", "result": 33}
    ]},
    {"substance": "AnxA2 6x (AnxA2 A66E with K81A, E189K, R196S, K206A, K212S, E219K, alkylated at Cys-8) (from UniProt P07355 21-339) (natural protein)", "values": [
      {"measurement": "crosslinked oligomers, percent of wild type (% of wild type)", "setting": "[2]", "result": 48}
    ]}
  ]
}
